Laboratory results published in patent US20150087046A1 (SPIBER TECHNOLOGIES, published 2015).

Legend:
[1] = molecular target: T1, albumin from human blood plasma (human, UniProt P02768 25-609); assay: film incubated with human blood plasma (1:5), acid elution, non-reducing SDS-PAGE
T1 construct: Not purified: the albumin source was diluted human blood plasma
Experimental: Films of His₆-ABD-CT were casted in 96-well plates (Tissue culture plate, Suspension cells, 83.1835.500, Sarstedt) from 15 μl of 1 mg/ml soluble fusion protein per film. The films were then allowed to solidify over night (20° C., 35% relative humidity). The same procedure was followed for casting films of His₆-ABD-NTCT from 15 μl of 1 mg/ml protein solution.
(§1) To evaluate the ability of ABD-NTCT films to bind albumin, human blood plasma was used as albumin source. Four films of ABD-NTCT and ABD-CT were pre-wetted with 150 μl of 1×PBS followed by incubation of 100 μl of human blood plasma (1:5 dilution) for 30 min at room temperature. After washing three times with 200 μl 1×PBS, bound albumin was eluted in 50 μl by lowering the pH to approximately 2.7 with elution buffer (i.e. 0.5 M acetic acid, 1 M urea, 100 mM NaCl), after which the eluted fractions were analyzed by non-reducing SDS-PAGE. Films of NTCT and CT were used as control material, and were treated in the same way.

[2] = molecular target: T1, albumin from human blood plasma; assay: film incubated with plasma, acid elution, non-reducing SDS-PAGE
Experimental: as §1

[3] = molecular target: biotinylated antigen sample (antigen recognised by scFv1, specific for Systemic Lupus Erythematosus); assay: microarray of spotted films, 10 nM biotinylated antigen, Alexa-647-streptavidin, spot intensity; reference: pure scFv1 control

T1 sequence (P02768 25-609 limits assumed): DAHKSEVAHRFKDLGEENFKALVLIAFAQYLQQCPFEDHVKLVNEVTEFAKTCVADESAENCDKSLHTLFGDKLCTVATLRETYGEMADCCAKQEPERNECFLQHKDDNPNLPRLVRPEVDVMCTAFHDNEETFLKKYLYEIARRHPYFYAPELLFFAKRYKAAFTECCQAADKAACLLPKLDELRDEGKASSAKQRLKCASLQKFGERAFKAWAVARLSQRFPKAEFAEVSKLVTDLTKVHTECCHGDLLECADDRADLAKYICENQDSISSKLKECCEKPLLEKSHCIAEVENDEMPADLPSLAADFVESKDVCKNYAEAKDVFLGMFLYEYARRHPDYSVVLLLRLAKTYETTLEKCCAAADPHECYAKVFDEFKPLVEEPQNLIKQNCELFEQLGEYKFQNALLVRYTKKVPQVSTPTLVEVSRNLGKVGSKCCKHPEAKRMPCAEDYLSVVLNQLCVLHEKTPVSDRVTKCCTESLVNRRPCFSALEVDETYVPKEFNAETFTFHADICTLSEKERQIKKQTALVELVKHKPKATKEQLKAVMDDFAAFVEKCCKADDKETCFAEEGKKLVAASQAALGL

B1: His6-ABD-NTCT fusion protein (other)
chain: MGSSGHHHHHHMLAEAKVLANRELDKYGVSDYYKNLINNAKTVEGVKALIDEILAALPGNSSHTTPWTNPGLAENFMNSFMQGLSSMPGFTASQLDDMSTIAQSMVQSIQSLAAQGRTSPNKLQALNMAFASSMAEIAASEEGGGSLSTKTSSIASAMSNAFLQTTGVVNQPFINEITQLVSMFAQAGMNDVSAGNSGIQGYGQSSASASAAASAASTVANSVSRLSSPSAVSRVSSAVSSLVSNGQVNMAALPNIISNISSSVSASAPGASGCEVIVQALLEVITALVQIVSSSSVGYINPSAVNQITNVVANAMAQVMG
notes: Tested as a solid film (polymer of the fusion protein) cast in 96-well plates from 15 ul of 1 mg/ml protein
binding result [1]: binds

B2: CT (control) film (other)
chain: SRLSSPSAVSRVSSAVSSLVSNGQVNMAALPNIISNISSSVSASAPGASGCEVIVQALLEVITALVQIVSSSSVGYINPSAVNQITNVVANAMAQVMG
binding result [2]: no binding (tested: human blood plasma (1:5 dilution))

B3: His6-ABD-CT fusion protein (other)
chain: MGHHHHHHMLAEAKVLANRELDKYGVSDYYKNLINNAKTVEGVKALIDEILAALPGNSGIQGYGQSSASASAAASAASTVANSVSRLSSPSAVSRVSSAVSSLVSNGQVNMAALPNIISNISSSVSASAPGASGCEVIVQALLEVITALVQIVSSSSVGYINPSAVNQITNVVANAMAQVMG
notes: as for B1
binding result [1]: binds

B4: NTCT (control) film (other)
chain: HHHHHHMSHTTPWTNPGLAENFMNSFMQGLSSMPGFTASQLDDMSTIAQSMVQSIQSLAAQGRTSPNKLQALNMAFASSMAEIAASEEGGGSLSTKTSSIASAMSNAFLQTTGVVNQPFINEITQLVSMFAQAGMNDVSASASAGASAAASAGAGSGNSGIQGYGQSSASASAAASAASTVANSVSRLSSPSAVSRVSSAVSSLVSNGQVNMAALPNIISNISSSVSASAPGASGCEVIVQALLEVITALVQIVSSSSVGYINPSAVNQITNVVANAMAQVMG
notes: also called His6NT-CT; His6NTCT
binding result [2]: no binding (tested: human blood plasma (1:5 dilution))

B5: His6-scFv1-NTCT fusion protein (scFv)
chain: MGSSGHHHHHHMEVQLLESGGGLVQPGGSLRLSCAASGFTFSSYEMNWVRQAPGKGLEWVSGISGSGGFTYYADSVKGRFTISRDNSKNTLYLQMNSLRAEDTAMYYCAREGYQDAFDIWGQGTLVTVSSGGGGSGGGGSGGGGSQSVLTQPPSASGTPGQRVTISCTGSSSNIGAGYDVHWYQQLPGTAPKLLIYSNNQRPSGVPDRFSGSKSGTSASLAISGLRSEDEADYYCAAWDDSLSGPPWVFGGGTKLTVLGEQKLISEEDLSGSAAAGNSSHTTPWTNPGLAENFMNSFMQGLSSMPGFTASQLDDMSTIAQSMVQSIQSLAAQGRTSPNKLQALNMAFASSMAEIAASEEGGGSLSTKTSSIASAMSNAFLQTTGVVNQPFINEITQLVSMFAQAGMNDVSAGNSGIQGYGQSSASASAAASAASTVANSVSRLSSPSAVSRVSSAVSSLVSNGQVNMAALPNIISNISSSVSASAPGASGCEVIVQALLEVITALVQIVSSSSVGYINPSAVNQITNVVANAMAQVMG
fold increase of antigen recognition against the scFv1 control [3]: 25 times
